For three substances, Kd and stoichiometry N results are on record in article PMC3500403.

pKd: −log10 of the molar value.

The target in test [1] is taxol stabilized microtubules (UniProt Q6B856). The test can be described thus: co-sedimentation.
In test [2] the target is human Ska1 complex containing GFP-Ska1 (human) (UniProt Q96BD8). The test can be described thus: single-molecule TIRF microscopy, intensity distribution and photobleaching steps.

Sequence of human Ska1 complex containing GFP-Ska1 (Q96BD8 whole entry): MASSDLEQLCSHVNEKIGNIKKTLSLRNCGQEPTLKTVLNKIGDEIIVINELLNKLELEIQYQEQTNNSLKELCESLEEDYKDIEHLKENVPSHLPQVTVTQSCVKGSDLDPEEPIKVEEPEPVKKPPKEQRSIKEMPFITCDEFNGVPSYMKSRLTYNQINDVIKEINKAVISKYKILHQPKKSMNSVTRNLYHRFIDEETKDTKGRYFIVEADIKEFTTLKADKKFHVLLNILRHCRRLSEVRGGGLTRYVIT
Sequence of human Ska1 complex containing GFP-Ska1 (Q8WVK7 whole entry): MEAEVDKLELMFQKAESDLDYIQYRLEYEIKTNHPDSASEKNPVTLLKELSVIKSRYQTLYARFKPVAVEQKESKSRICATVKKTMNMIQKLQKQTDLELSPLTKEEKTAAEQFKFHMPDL
Sequence of human Ska1 complex containing GFP-Ska1 (Q8IX90 whole entry): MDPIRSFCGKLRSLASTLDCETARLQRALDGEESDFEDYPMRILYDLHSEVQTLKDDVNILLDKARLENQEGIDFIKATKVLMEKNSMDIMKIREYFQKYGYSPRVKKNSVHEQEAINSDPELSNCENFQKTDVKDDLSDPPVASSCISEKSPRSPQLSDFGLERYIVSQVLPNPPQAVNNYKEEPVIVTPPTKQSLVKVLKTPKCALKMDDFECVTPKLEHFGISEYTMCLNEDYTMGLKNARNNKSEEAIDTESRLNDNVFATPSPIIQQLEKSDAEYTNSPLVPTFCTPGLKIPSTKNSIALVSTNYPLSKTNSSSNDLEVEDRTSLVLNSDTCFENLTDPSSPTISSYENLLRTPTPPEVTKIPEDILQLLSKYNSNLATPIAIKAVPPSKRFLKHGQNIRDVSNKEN
Sequence of human Ska1 complex (Q96BD8 whole entry): as the sequence (Q96BD8 whole entry) above
Sequence of human Ska1 complex (Q8WVK7 whole entry): as the sequence (Q8WVK7 whole entry) above
Sequence of human Ska1 complex (Q8IX90 whole entry): as the sequence (Q8IX90 whole entry) above

In turn, “C. elegans Ska1 complex (from UniProt Q9XWS0 1-243)” showed a negative logarithm of the Kd (pKd) in test [1] of 4.95.

In turn, “human Ska1 complex containing GFP-Ska1 (from UniProt Q96BD8 1-255; Q8WVK7 1-121; Q8IX90 1-412)” returned a stoichiometry N in test [2] of 2.

“human Ska1 complex (from UniProt Q96BD8 1-255; Q8WVK7 1-121; Q8IX90 1-412)” gave a negative-log Kd (pKd) in test [1] of 5.62.

By pKd is commonly meant the negative decadic logarithm of the Kd, by convention in mol/L. Low readings indicate a high Kd, high ones a low Kd. A word on the stoichiometry N: it is the number of molecules, sites or subunits per partner or assembly.
